According to PMC10397247:
One block for each binder: values may come before it.

Assays:
4H3057-bH = target: T1, 4H3057-bH; experiment: two-hybrid library CCNG1;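 also: natural log of median RNA to DNA barcode read ratio; higher means stronger binding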
T1 chain: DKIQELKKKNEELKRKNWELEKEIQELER

4H319-bH = target: T2, 4H319-bH; experiment: two-hybrid library CCNG1;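 also: natural log of median RNA to DNA barcode read ratio; higher means stronger binding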
T2 chain: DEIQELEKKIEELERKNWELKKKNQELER

4H3277-bH = target: T3, 4H3277-bH; experiment: two-hybrid library CCNG1;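 also: natural log of median RNA to DNA barcode read ratio; higher means stronger binding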
T3 chain: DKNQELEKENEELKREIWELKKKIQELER

4H348-bH = target: T4, 4H348-bH; experiment: two-hybrid library CCNG1;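 also: natural log of median RNA to DNA barcode read ratio; higher means stronger binding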
T4 chain: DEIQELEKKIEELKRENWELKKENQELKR

4H40-bH = target: T5, 4H40-bH; experiment: two-hybrid library CCNG1;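 also: natural log of median RNA to DNA barcode read ratio; higher means stronger binding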
T5 chain: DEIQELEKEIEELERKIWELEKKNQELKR

4H477-bH = target: T6, 4H477-bH; experiment: two-hybrid library CCNG1;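 also: natural log of median RNA to DNA barcode read ratio; higher means stronger binding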
T6 chain: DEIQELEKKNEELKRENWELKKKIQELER

4H492-bH = target: T7, 4H492-bH; experiment: two-hybrid library CCNG1
T7 chain: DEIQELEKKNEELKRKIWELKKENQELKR

4H741-bH = target: T8, 4H741-bH; experiment: two-hybrid library CCNG1
T8 chain: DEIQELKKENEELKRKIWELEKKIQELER

4H3817-bN = target: T9, 4H3817-bN; experiment: two-hybrid library CCNG1
T9 chain: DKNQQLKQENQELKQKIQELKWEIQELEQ

4H3858-bN = target: T10, 4H3858-bN; experiment: two-hybrid library CCNG1
T10 chain: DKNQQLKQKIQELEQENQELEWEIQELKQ

4H3974-bN = target: T11, 4H3974-bN; experiment: two-hybrid library CCNG1
T11 chain: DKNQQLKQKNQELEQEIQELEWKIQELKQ

4H570-bN = target: T12, 4H570-bN; experiment: two-hybrid library CCNG1
T12 chain: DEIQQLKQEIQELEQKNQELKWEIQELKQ

4H584-bN = target: T13, 4H584-bN; experiment: two-hybrid library CCNG1
T13 chain: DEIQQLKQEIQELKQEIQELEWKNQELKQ

4H619-bN = target: T14, 4H619-bN; experiment: two-hybrid library CCNG1
T14 chain: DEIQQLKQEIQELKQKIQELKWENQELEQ

4H850-bN = target: T15, 4H850-bN; experiment: two-hybrid library CCNG1
T15 chain: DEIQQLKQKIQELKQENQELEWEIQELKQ

4H906-bN = target: T16, 4H906-bN; experiment: two-hybrid library CCNG1
T16 chain: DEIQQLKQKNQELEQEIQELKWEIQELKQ

AP7-AA = target: T17, AP7-AA; experiment: two-hybrid library CCmax; settings: mean of both orientations
T17 chain: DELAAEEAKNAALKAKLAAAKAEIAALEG

AP8-AA = target: T18, AP8-AA; experiment: two-hybrid library CCmax; settings: mean of both orientations
T18 chain: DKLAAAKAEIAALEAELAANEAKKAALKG

GCN2_T = experiment: two-hybrid library CCmax
P1-AA = target: T19, P1-AA; experiment: two-hybrid library CCmax; settings: mean of both orientations
T19 chain: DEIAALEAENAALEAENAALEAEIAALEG

P10-AA = target: T20, P10-AA; experiment: two-hybrid library CCmax; settings: mean of both orientations
T20 chain: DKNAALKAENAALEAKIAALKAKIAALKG

P11-AA = target: T21, P11-AA; experiment: two-hybrid library CCmax; settings: mean of both orientations
T21 chain: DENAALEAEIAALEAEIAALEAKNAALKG

P12-AA = target: T22, P12-AA; experiment: two-hybrid library CCmax; settings: mean of both orientations
T22 chain: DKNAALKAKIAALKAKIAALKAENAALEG

P2-AA = target: T23, P2-AA; experiment: two-hybrid library CCmax; settings: mean of both orientations
T23 chain: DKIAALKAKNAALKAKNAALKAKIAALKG

P3-AA = target: T24, P3-AA; experiment: two-hybrid library CCmax; settings: mean of both orientations
T24 chain: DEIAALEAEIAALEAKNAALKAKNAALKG

P4-AA = target: T25, P4-AA; experiment: two-hybrid library CCmax; settings: mean of both orientations
T25 chain: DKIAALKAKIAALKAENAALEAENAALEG

P7-AA = target: T26, P7-AA; experiment: two-hybrid library CCmax; settings: mean of both orientations
T26 chain: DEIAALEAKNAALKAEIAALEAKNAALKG

P8-AA = target: T27, P8-AA; experiment: two-hybrid library CCmax; settings: mean of both orientations
T27 chain: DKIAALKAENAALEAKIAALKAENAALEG

P9-AA = target: T28, P9-AA; experiment: two-hybrid library CCmax; settings: mean of both orientations
T28 chain: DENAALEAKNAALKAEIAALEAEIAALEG

4H338-bN = target: T29, 4H338-bN; experiment: two-hybrid library CCNG1
T29 chain: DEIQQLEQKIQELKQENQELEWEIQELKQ

4H3427-bN = target: T30, 4H3427-bN; experiment: two-hybrid library CCNG1
T30 chain: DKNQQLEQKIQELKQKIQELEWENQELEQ

4H3782-bN = target: T31, 4H3782-bN; experiment: two-hybrid library CCNG1
T31 chain: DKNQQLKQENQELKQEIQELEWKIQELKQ

4H3855-bN = target: T32, 4H3855-bN; experiment: two-hybrid library CCNG1
T32 chain: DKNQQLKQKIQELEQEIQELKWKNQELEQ

4H4001-bN = target: T33, 4H4001-bN; experiment: two-hybrid library CCNG1
T33 chain: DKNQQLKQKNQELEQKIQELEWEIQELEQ

4H454-bN = target: T34, 4H454-bN; experiment: two-hybrid library CCNG1
T34 chain: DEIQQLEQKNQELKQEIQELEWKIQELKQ

4H568-bN = target: T35, 4H568-bN; experiment: two-hybrid library CCNG1
T35 chain: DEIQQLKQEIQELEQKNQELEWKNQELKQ

4H607-bN = target: T36, 4H607-bN; experiment: two-hybrid library CCNG1
T36 chain: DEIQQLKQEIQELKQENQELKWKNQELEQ

4H687-bN = target: T37, 4H687-bN; experiment: two-hybrid library CCNG1
T37 chain: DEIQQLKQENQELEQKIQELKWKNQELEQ

4H717-bN = target: T38, 4H717-bN; experiment: two-hybrid library CCNG1
T38 chain: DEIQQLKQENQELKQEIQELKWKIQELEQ

4H72-bN = target: T39, 4H72-bN; experiment: two-hybrid library CCNG1
T39 chain: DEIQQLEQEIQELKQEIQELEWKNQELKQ

4H754-bN = target: T40, 4H754-bN; experiment: two-hybrid library CCNG1
T40 chain: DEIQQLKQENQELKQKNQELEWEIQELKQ

4H797-bN = target: T41, 4H797-bN; experiment: two-hybrid library CCNG1
T41 chain: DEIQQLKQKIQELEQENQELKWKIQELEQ

4H883-bN = target: T42, 4H883-bN; experiment: two-hybrid library CCNG1
T42 chain: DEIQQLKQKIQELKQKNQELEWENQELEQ

4H908-bN = target: T43, 4H908-bN; experiment: two-hybrid library CCNG1
T43 chain: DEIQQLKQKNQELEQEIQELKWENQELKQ

4H918-bN = target: T44, 4H918-bN; experiment: two-hybrid library CCNG1
T44 chain: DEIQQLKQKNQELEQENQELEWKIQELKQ

4H953-bN = target: T45, 4H953-bN; experiment: two-hybrid library CCNG1
T45 chain: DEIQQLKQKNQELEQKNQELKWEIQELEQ

4H967-bN = target: T46, 4H967-bN; experiment: two-hybrid library CCNG1
T46 chain: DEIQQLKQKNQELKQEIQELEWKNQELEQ

B1: 4H3057-bH (peptide)
chain: DKIQELKKKNEELKRKNWELEKEIQELER
interaction score (4H3057-bH): -0.611 | interaction score (4H319-bH): -1.81 | interaction score (4H3277-bH): -1.01 | interaction score (4H348-bH): -0.361 | interaction score (4H40-bH): -1.77 | interaction score (4H477-bH): -1.13 | interaction score (4H492-bH): -1.13 | interaction score (4H741-bH): -1.52

B4: 4H338-bN (peptide)
chain: DEIQQLEQKIQELKQENQELEWEIQELKQ
interaction score (4H338-bN): -1.01 | interaction score (4H3427-bN): -0.828 | interaction score (4H3782-bN): -0.966 | interaction score (4H3855-bN): -0.12 | interaction score (4H4001-bN): -0.385 | interaction score (4H454-bN): -0.967 | interaction score (4H568-bN): 0.409 | interaction score (4H607-bN): -1.19 | interaction score (4H687-bN): 0.0368 | interaction score (4H717-bN): -1.16 | interaction score (4H72-bN): -0.606 | interaction score (4H754-bN): -0.701 | interaction score (4H797-bN): -1.45 | interaction score (4H883-bN): -1.26 | interaction score (4H908-bN): -0.434 | interaction score (4H918-bN): -0.295 | interaction score (4H953-bN): -1.33 | interaction score (4H967-bN): 0.117

The next lines start with the values.

interaction score (4H3817-bN): -0.754 | interaction score (4H3858-bN): -0.555 | interaction score (4H3974-bN): -0.487 | interaction score (4H570-bN): -1.92 | interaction score (4H584-bN): -2.15 | interaction score (4H619-bN): -0.743 | interaction score (4H850-bN): -0.947 | interaction score (4H906-bN): -1.83
B2: 4H3817-bN (peptide)
chain: DKNQQLKQENQELKQKIQELKWEIQELEQ

interaction score (AP7-AA): -1.62 | interaction score (AP8-AA): -1.59 | interaction score (GCN2_T): -1.54 | interaction score (P1-AA): -1.88 | interaction score (P10-AA): -0.802 | interaction score (P11-AA): -1.25 | interaction score (P12-AA): -1.57 | interaction score (P2-AA): -1.88 | interaction score (P3-AA): -1.95 | interaction score (P4-AA): -2.36 | interaction score (P7-AA): -0.655 | interaction score (P8-AA): -1.22 | interaction score (P9-AA): -0.901
B3: AP6-AA (peptide)
chain: DEEAALEAKAAALKAELAANEAKLAAAKG
